These results are taken from paper PMC4177747, “Derlin-1 Regulates Mutant VCP-Linked Pathogenesis and Endoplasmic Reticulum Stress-Induced Apoptosis” (PLoS Genetics, 2014).

This test concerns the target T1, TER94 (endogenous, the fly VCP homolog) (Drosophila (endogenous in flies), UniProt Q7KN62 1-801).
T1 construct: TER94, the Drosophila homolog of VCP, endogenous, detected with anti-VCP; also called TER94^WT; source: endogenous, whole fly lysate
In words: co-IP; anti-VCP on protein A-agarose; lysates of wild-type flies untreated or kept at 0°C for two hours and recovered for four hours at 25°C; blot with anti-VCP and anti-Derlin-1. The note with it: partners not purified.

T1 sequence (Q7KN62 whole entry): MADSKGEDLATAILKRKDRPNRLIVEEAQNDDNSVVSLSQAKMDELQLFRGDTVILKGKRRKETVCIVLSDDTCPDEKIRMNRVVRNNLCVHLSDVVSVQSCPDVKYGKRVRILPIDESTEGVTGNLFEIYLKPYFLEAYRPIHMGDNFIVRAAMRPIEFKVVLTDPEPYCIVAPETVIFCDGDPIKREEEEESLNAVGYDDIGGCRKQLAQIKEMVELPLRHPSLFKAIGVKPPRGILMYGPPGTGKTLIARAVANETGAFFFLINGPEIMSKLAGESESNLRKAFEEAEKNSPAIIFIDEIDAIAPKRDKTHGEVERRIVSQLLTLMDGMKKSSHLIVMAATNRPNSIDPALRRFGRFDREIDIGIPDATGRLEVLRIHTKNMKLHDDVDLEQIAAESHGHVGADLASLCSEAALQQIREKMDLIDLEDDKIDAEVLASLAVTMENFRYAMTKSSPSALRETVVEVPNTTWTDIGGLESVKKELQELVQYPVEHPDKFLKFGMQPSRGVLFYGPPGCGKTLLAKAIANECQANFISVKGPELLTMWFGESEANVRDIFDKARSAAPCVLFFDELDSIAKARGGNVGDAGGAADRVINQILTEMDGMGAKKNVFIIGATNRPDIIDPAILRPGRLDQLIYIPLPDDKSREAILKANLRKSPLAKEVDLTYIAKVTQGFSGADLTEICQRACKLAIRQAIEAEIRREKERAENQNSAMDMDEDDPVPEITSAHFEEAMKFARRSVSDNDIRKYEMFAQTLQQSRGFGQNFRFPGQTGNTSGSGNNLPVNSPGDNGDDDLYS

B1: Derlin-1 (endogenous, fly) (natural protein, Drosophila (endogenous in flies), UniProt Q9VQ57 1-245, looked up)
chain: MDAGVWYRSLPRFTRYWLTATVVLSMLCRFDVIPLHWLHLDRSAVFSKLQLWRCMTSLFVFPISSNTAFHFLINCFFIVQYSSKLEKDQYSRSPADYLYLLIVSAVLANIGGMIFNVYFLMDTLVLAITYIWCQLNKDVTVSFWFGTRFKAMYLPWVLAAFEFIFHFSLASLVGIFVGHVYYFFKFQYSQDLGGTPLLETPQFLKRLVPDVSGGFGGFGLPPESRAPPRQATESPWGRGMTLGRN
notes: Derlin-1, Drosophila, endogenous protein of about 27 kD (predicted 28.25 kD); also called endogenous Derlin-1; source: endogenous, whole fly lysate
B1: the “fold increase of the level of Derlin-1/TER94 complexes after cold treatment against untreated (normalised to TER94)” value worked out at 4.9 ± 0.98 fold.
